Target: T1, design #8 (v-SNARE-like protein, v-SP; MPNN-redesigned VAMP2), SEQ ID NO: 8
T1 chain: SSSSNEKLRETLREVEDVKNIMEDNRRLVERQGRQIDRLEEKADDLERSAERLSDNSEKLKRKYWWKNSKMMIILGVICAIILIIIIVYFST
Assay: cell-based or functional assay

B1: design #94 (single-chain t-SNARE-like protein, sc-t-SP), SEQ ID NO: 94 (designed binder)
chain: SEREKEIDEGLDRVSEIVKELKKMAEEMRRMIEEQGRRIERIEEKAEEAKEKIEEANERAEKLLKDPGGSGGSEELKKLEKEGEKLKELVEELDREIKELKEGMERLREMFEEAAKLSEEALEIMRRTRKLSEEELEEAKQKAKEQEKEKALKEKGGSGGSGGSEKVKRELAQIEERHQQILELEEKIKELLEMFKELSEKIEEQGQKIDRIEDKVSKAKEHVEKGVEDTKKAVKYQSKARRKKIMIIICCVILGIVIASTVGGIFA
B1 was tested, and the “cell-cell fusion assay (reporter luciferase), fold over parental SNARE complex” value was 10 fold.

— patent US20250092424A1 (University of Washington, published 2025)
